Drawing on patent publication US20070178531A1 (BIOCHECK, published 2007), this text covers A450 for five molecules.

Changes are numbered by the printed parent chain.

The target of assay [1] is T1, Mouse Id2: Histidine (mouse, UniProt P41136 1-134, limits assumed).
T1 construct: Fusion protein made in E. coli from vector pGW07; also called m-Id2: His; not shown: His tag
T1 sequence (looked up): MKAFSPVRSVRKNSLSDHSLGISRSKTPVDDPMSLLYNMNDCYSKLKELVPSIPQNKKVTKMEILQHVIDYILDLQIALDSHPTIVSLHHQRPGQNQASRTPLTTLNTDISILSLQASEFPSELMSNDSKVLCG
Description: ELISA, Ab 0.010 µg/ml. As for the experimental part:
(§1) The rabbit monoclonal anti-human Id3 (clone #3-3) and the rabbit monoclonal anti-mouse/human Id3 (clones #6-1, 16-1, 17-3, and 42-1) produced in Example 6 were tested reactivity against the following antigens: mouse Id1:His, human Id1:His, mouse Id2:His, human Id2:His, mouse Id3:His, human Id3:His, mouse Id4:His, human Id4:His and GST.
(§2) 1. Microtiter wells (prepared in accordance with Example 6) were coated (0.1 μg/well) with mouse Id1:His, human Id1:His, human Id2:His, human Id3:His, and 1.0 μg/well with GST. [0155] 2. Antibody Diluent: 0.25% (w/v) BSA in 0.015M KPO₄ Buffer, 0.85% (w/v) NaCl, 0.1% (w/v) NaN₃, pH=7.40 [0156] 3. Rabbit monoclonal anti-human Id3 (clone #3-3) prepared in Example 7 was diluted to […] with the antibody diluent. […] 4. Rabbit monoclonal anti-mouse/human Id3 (clones #6-1, 16-1, 17-3, 42-1) prepared in Example 7 was diluted to 0.005, 0.010, 0.025, 0.05, 0.10, 0.25, and 0.50 μg/ml with the antibody diluent. […] 5. Conjugate Diluent: 50% (v/v) which consists of an aqueous solution containing Fetal Bovine Serum in 0.05 M Tris, 1% (v/v) Proclin-300, pH 7.6. [0159] 6. Conjugate: Goat anti-rabbit IgG (H+L)-HRP conjugate. [0160] 7. TMB reagent. […] 8. Stop solution (1 N HCI). Method
(§3) 1. Dispense 100 μL of antibody diluent, diluted rabbit monoclonal human Id3, and mouse/human Id3 hybridoma supernatants into appropriate wells. […] 2. Incubate at room temperature with mechanical shaking at 750 rpm for 90 minutes. [0165] 3. Remove the incubation mixture by flicking plate content into an appropriate waste container followed by rinsing the wells 5 times with distilled water. [0166] 4. Strike the wells sharply onto absorbent paper or paper towels to remove all residual water droplets. [0167] 5. Dispense 100 μL of 1:50,000 Goat Anti-Rabbit IgG-HRP Conjugate Reagent into each well. Gently mix for 5 seconds. [0168] 6. Incubate at room temperature with mechanical shaking at 750 rpm for 90 minutes. [0169] 7. Repeat procedures 3 and 4. [0170] 8. Dispense 100 μL of TMB Reagent into each well. Gently mix for 5 seconds. [0171] 9. Incubate at room temperature with mechanical shaking at 750 rpm for 20 minutes. […] 10.

Assay [2] addresses T2, Human Id1: Histidine (human, UniProt P41134 1-155, limits assumed).
T2 construct: Fusion protein made in E. coli from vector pGW07; also called h-Id1: his; not shown: His tag
T2 sequence (looked up): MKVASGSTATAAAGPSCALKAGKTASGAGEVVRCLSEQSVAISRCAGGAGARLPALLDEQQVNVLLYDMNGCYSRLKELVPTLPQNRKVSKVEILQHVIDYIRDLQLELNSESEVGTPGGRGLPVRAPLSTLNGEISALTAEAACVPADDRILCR
Description: ELISA, Ab 0.010 µg/ml. Here is the method:
as §1, §2, §3

The target in assay [3] is T3, Mouse Id1: Histidine (mouse, UniProt P20067-2 1-148, limits assumed).
T3 construct: Fusion protein made in E. coli from vector pGW07; also called m-Id1-His; not shown: His tag
T3 sequence (looked up): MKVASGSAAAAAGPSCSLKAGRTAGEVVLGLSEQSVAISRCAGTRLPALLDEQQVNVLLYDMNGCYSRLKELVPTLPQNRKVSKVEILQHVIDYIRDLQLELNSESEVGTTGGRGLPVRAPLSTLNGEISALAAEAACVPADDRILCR
Description: ELISA, Ab 0.010 µg/ml. As for the experimental part: as §1, §2, §3

In assay [4] the target is T4, Mouse Id3: Histidine (mouse, UniProt P41133 1-119).
T4 construct: Fusion protein made in E. coli from vector pGW07; also called m-Id3: His; Mouse Id3 (coated wells); not shown: His tag
T4 sequence: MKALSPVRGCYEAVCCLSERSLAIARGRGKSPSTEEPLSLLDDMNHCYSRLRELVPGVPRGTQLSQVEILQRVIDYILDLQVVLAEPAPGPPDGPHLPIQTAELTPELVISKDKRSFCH
Description: ELISA, Ab 0.010 µg/ml. As for the experimental part:
as §1, §2, §3

The target of a further assay is T5, Human Id2: Histidine (human, UniProt Q02363 1-134, limits assumed).
T5 construct: Fusion protein made in E. coli from vector pGW07; also called h-Id2: His; not shown: His tag
T5 sequence (looked up): T1 sequence (looked up) with T60S, V131A
Description: ELISA, Ab 0.250 µg/ml. Here is the method:
as §1, §2, §3

Assay [5] concerns the target T1, Mouse Id2: Histidine. Description: ELISA, Ab 0.250 µg/ml. Here is the method:
as §1, §2, §3

A further assay concerns the target T6, Human Id3: Histidine (human, UniProt Q02535 1-119 at identity 1.00)).
T6 construct: Fusion protein made in E. coli from vector pGW07; also called h-Id3: His; Human Id3 (coated wells); not shown: His tag
T6 chain: T4 sequence with S31G, S33A, T34A, T105A, K112N
Description: ELISA, Ab 0.250 µg/ml. Here is the method: as §1, §2, §3

Assay [6] has as its target T2, Human Id1: Histidine. Description: ELISA, Ab 0.250 µg/ml. Here is the method:
as §1, §2, §3

Assay [7] addresses T7, glutathione S-transferase (GST) (UniProt P08515 1-218 = GST).
T7 construct: also called carrier protein GST
Description: ELISA, Ab 0.250 µg/ml. As for the experimental part:
as §1, §2, §3

Assay [8] concerns the target T3, Mouse Id1: Histidine. Description: ELISA, Ab 0.250 µg/ml. As for the experimental part:
as §1, §2, §3

In assay [9] the target is T4, Mouse Id3: Histidine. Description: ELISA, Ab 0.250 µg/ml. Here is the method: as §1, §2, §3

T7 sequence (P08515 whole entry): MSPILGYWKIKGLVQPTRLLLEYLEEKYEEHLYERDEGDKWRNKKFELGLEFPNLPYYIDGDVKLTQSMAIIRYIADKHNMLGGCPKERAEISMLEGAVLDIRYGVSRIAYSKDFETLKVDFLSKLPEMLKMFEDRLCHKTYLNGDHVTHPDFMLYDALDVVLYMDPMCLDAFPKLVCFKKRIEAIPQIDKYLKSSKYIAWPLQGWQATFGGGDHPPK

B1: rabbit monoclonal anti-mouse/human Id3, clone #BCH-4/#16-1 (antibody, V domains shown)
VH: QSVEESGGRLVTPGTPLTLTCTASGFSLSSYYIHWVRQAPGKALEWIGYISDGGTTYYASWAKGRFTISKTSSTTVDLKMTSLTTEDTATYFCARQGFNIWGPGTLVTVSL
VL: AVLTQTPSPVSAAVGGTVTISCQSSQSVYNNNWLSWFQQKSGQPPKLLIYETSKLESGVPSRFKGSGSGTQFTLTIIDVQCDDAATYYCLGGYWTTSDNNIFGGGTEVVVK
notes: Rabbit IgG from a rabbit hybridoma; also called m/h Id3 MoAb 16-1
For B1, the A450 in the assay with Mouse Id2: Histidine [1] is 0.049 A450; with Human Id1: Histidine [2], 0.042 A450; in the assay with Mouse Id1: Histidine [3] it was 0.05 A450; with Mouse Id3: Histidine [4], 0.432 A450; in the assay with Human Id2: Histidine it was 0.052 A450; with Mouse Id2: Histidine [5] it was 0.063 A450. Further, the A450 with Human Id3: Histidine came out at 2.83 A450; with Human Id1: Histidine [6], 0.045 A450; in assay [7], 0.048 A450; with Mouse Id1: Histidine [8], 0.047 A450; in the assay with Mouse Id3: Histidine [9], 3.21 A450.

B2: rabbit monoclonal anti-mouse/human Id3, clone #BCH-4/#17-3 (antibody, V domains shown)
VH: B1 VH with S30N, Y31V, A43G, G54D, T56A, Y57R, S60T, D77N
VL: B1 VL with T19S, Y29W, S41P, I77S, I101V
notes: Rabbit IgG from a rabbit hybridoma; also called m/h Id3 MoAb 17-3; BCH-3/#17-3
Regarding B2, the A450 with Mouse Id2: Histidine [1] worked out at 0.048 A450; with Human Id1: Histidine [2], 0.046 A450; with Mouse Id1: Histidine [3] it was 0.047 A450; with Mouse Id3: Histidine [4] it was 0.69 A450; with Human Id2: Histidine, 0.054 A450; with Mouse Id2: Histidine [5], 0.064 A450. Further, the A450 amounted to 3.32 A450 with Human Id3: Histidine; 0.045 A450 with Human Id1: Histidine [6]; 0.052 A450 in [7]; 0.052 A450 with Mouse Id1: Histidine [8]; 3.62 A450 in the assay with Mouse Id3: Histidine [9].

B3: rabbit monoclonal anti-mouse/human Id3, clone #BCH-4/#6-1 (antibody, V domains shown)
VH: B1 VH with S30N, Y31V, A43G, G54D, T56A, Y57R, S60T, D77N
VL: B1 VL with T19S, Y29W, S41P, I77S, I101V
notes: Rabbit IgG from a rabbit hybridoma; also called m/h Id3 MoAb 6-1
Regarding B3, the A450 in the assay with Mouse Id2: Histidine [1] came to 0.048 A450; with Human Id1: Histidine [2], 0.049 A450; in the assay with Mouse Id1: Histidine [3], 0.044 A450; in the assay with Mouse Id3: Histidine [4], 0.539 A450; with Human Id2: Histidine, 0.056 A450; in the assay with Mouse Id2: Histidine [5] it was 0.062 A450. For the same molecule, the A450 was 3.02 A450 with Human Id3: Histidine; 0.051 A450 in the assay with Human Id1: Histidine [6]; 0.051 A450 in assay [7]; 0.048 A450 with Mouse Id1: Histidine [8]; 3.42 A450 in the assay with Mouse Id3: Histidine [9].

B4: rabbit monoclonal anti-mouse/human Id3, clone #BCH-4/#42-1 (antibody, V domains shown)
VH: B1 VH
VL: B1 VL with T95S
notes: Rabbit IgG from a rabbit hybridoma; also called m/h Id3 MoAb 42-1
Take B4: the A450 in the assay with Mouse Id2: Histidine [1] is 0.05 A450; with Human Id1: Histidine [2] it was 0.045 A450; with Mouse Id1: Histidine [3], 0.043 A450; with Mouse Id3: Histidine [4], 0.756 A450; with Human Id2: Histidine, 0.051 A450; with Mouse Id2: Histidine [5] it was 0.063 A450. The A450 with Human Id3: Histidine stood at 3.31 A450; with Human Id1: Histidine [6], 0.044 A450; in [7], 0.051 A450; with Mouse Id1: Histidine [8] it was 0.054 A450; with Mouse Id3: Histidine [9], 3.55 A450.

B5: rabbit monoclonal anti-human Id3, clone #BCH-4/#3-3 (antibody, V domains shown)
VH: QSVEESGGRLVTPGTPLTLTCTVSGIDLSSYAMSWVRQAPGKGLEWIGVIFPSNNVYYASWAKGRFTISKTSTTVDLKITSPTTEDTATYFCASMGAFDSWGPGTLVTVSS
VL: QVLTQTPSPVSAAVGGTVTINCQASQSIYNDNDLAWFQQKPGQPPKLLIYDASTLTSGVPSRFKGSGSGTQFTLTISDLDCDDAATYYCAARYSGNIYGFGGGTEVVVK
notes: Rabbit IgG from a rabbit hybridoma; also called h Id3 MoAb 3-3
In the case of B5, the A450 with Mouse Id2: Histidine [1] was found to be 0.045 A450; with Human Id1: Histidine [2], 0.046 A450; with Mouse Id1: Histidine [3], 0.047 A450; in the assay with Human Id2: Histidine it was 0.054 A450; in the assay with Mouse Id2: Histidine [5], 0.051 A450; with Human Id1: Histidine [6], 0.047 A450. Besides, the A450 (in assay [7]; with Mouse Id1: Histidine [8]) was 0.048 A450 in each case.
